Laboratory results reported in publication PMC6237740.

Columns and labels:
Experiment in all cases: fluorescence anisotropy competition
PU.1/Ets-1 wing chimera = conditions: 10 mM TrisHCl pH 7.4, 0.15 M NaCl, 0.1 mg/ml BSA, betaine to set osmolality (0.3 osm without stress); Cy3-DNA probe displaced by unlabeled DNA; binding …
PU.1/Ets-1 H2 chimera = conditions: 10 mM TrisHCl pH 7.4, 0.15 M NaCl, 0.1 mg/ml BSA, betaine to set osmolality (0.3 osm without stress); Cy3-DNA probe displaced by unlabeled DNA; binding …
PU.1/Ets-1 S3 chimera = conditions: 0.1 mg/ml BSA, betaine to set osmolality (0.3 osm without stress), Cy3-DNA probe displaced by unlabeled DNA
PU.1/Ets-1 H3 chimera = conditions: 10 mM TrisHCl pH 7.4, 0.15 M NaCl, 0.1 mg/ml BSA, betaine to set osmolality (0.3 osm without stress); Cy3-DNA probe displaced by unlabeled DNA; binding …
[1] = test system: PU.1 ETS domain WT (PU.1ΔN167); conditions: 10 mM TrisHCl pH 7.4, 0.15 M NaCl, 0.1 mg/ml BSA, betaine to set osmolality (0.3 osm without stress), Cy3-DNA probe displaced by unlabeled DNA
PU.1/Ets-1 loop chimera = conditions: 10 mM TrisHCl pH 7.4, 0.15 M NaCl, 0.1 mg/ml BSA, betaine to set osmolality (0.3 osm without stress); Cy3-DNA probe displaced by unlabeled DNA; binding …
[2] = test system: Ets-1 ETS domain WT (Mus musculus); conditions: normo-osmotic; 10 mM TrisHCl pH 7.4, 0.15 M NaCl, 0.1 mg/ml BSA, betaine to set osmolality (0.3 osm without stress); Cy3-DNA probe displaced by unlabeled DNA; binding …

Row | Substance | Kd (PU.1/Ets-1 wing chimera) | Kd (PU.1/Ets-1 H2 chimera) | Kd (PU.1/Ets-1 S3 chimera; 10 mM TrisHCl pH 7.4, 0.15 M NaCl, binding …) | Kd (PU.1/Ets-1 H3 chimera) | Kd ([1]; binding …) | Kd (PU.1/Ets-1 loop chimera) | Kd [2] | binding signal (PU.1/Ets-1 S3 chimera; weaker than S3 chimera on N1, 10 mM TrisHCl pH 7.4, 0.15 M NaCl, scale: fold stronger than WT PU.1 on the same low-affinity DNA) | binding signal ([1]; may replot earlier WT data, scale: fold affinity vs S3 chimera on the same low-affinity DNA)
1 | AGC high-affinity PU.1 site, 23-bp duplex | 1.6 nM | 0.8 nM | 0.49 nM | 22 nM | 0.34 nM | 1.3 nM | 0.6 nM |  | 
2 | SC1 optimal Ets-1 site |  |  |  |  |  |  | 0.17 nM |  | 
3 | low-affinity PU.1 site, 23-bp duplex |  |  |  |  |  |  |  | 5 | 0.2
